Measured values published in the MegaScale stability set (Tsuboyama et al. 2023).

B1: EEHEE_rd4_0363 (parent)
chain: VTVDIKGMEYHFDNPEEAKKFAERMAKELGGELKVENGTLKVE

Variants of: B1
Assay: folding stability dG (cDNA display proteolysis); higher = more stable
Conditions: PBS, room temperature

Folding stability dG [kcal/mol]: each site, then its substitutions
M25: K 1.37 | L 1.45 | N 0.581 | P -0.009 | Q 1.05 | R 1.13 | S 0.692 | T 0.78 | V 1.44 | W 2.1 | Y 1.34
A26: C 2.06 | D 0.592 | E 0.931 | F 1.13 | G 0.834 | H 0.962 | I 1.6 | K 0.954 | L 1.64 | M 1.55 | N 0.898 | P -0.451 | Q 1.3 | R 1.24 | S 1.3 | T 1.23 | V 1.66 | W 1.48 | Y 0.983
K27: A 2.15 | C 2.48 | D 1.56 | E 1.77 | F 2.35 | G 1.35 | H 1.87 | I 2.14 | L 2.35 | M 2.19 | N 1.75 | P 0.089 | Q 2.09 | R 2.11 | S 1.81 | T 1.7 | V 1.82 | W 2.28 | Y 2.27
E28: A 1.81 | C 2.97 | D 1.34 | F 1.95 | G 0.795 | H 1.73 | I 2.18 | K 1.92 | L 2.34 | M 2.03 | N 1.28 | P 0.477 | Q 1.75 | R 1.81 | S 1.4 | T 1.47 | V 1.88 | W 2.26 | Y 2.07
L29: A 0.915 | D 0.74 | E 0.835 | F 1.55 | G 0.895 | H 1.23 | I 1.57 | K 0.78 | M 1.69 | N 1.05 | P 0.59 | Q 1.06 | R 0.668 | S 1.12 | T 1.37 | V 1.14 | W 1.34 | Y 1.47
G30: A 1.43 | C 2.23 | D 1.52 | E 1.41 | F 1.43 | H 1.74 | I 1 | K 1.66 | L 1.34 | M 1.55 | N 1.93 | P 0.76 | Q 1.57 | R 1.6 | S 1.5 | T 1 | V 1.01 | W 1.17 | Y 1.27
G31: A 2.15 | C 2.36 | D 0.935 | E 1.23 | F 2.03 | H 1.27 | I 1.88 | K 0.977 | L 2.57 | M 2.32 | N 0.953 | P 0.726 | Q 1.32 | R 0.865 | S 1.39 | T 1.38 | V 1.85 | W 2.33 | Y 2.12
E32: A 2.15 | C 2.56 | D 1.67 | F 2.82 | G 1.4 | H 2.45 | I 2.89 | K 2.43 | L 2.32 | M 2.31 | N 2.21 | P 0.989 | Q 2.41 | R 2.23 | S 2.48 | T 2.81 | V 2.84 | W 2.97 | Y 2.96
L33: A 1.07 | D 0.762 | E 0.789 | F 1.47 | G 0.82 | H 0.949 | I 2.48 | K 0.659 | M 1.61 | N 0.799 | P 0.732 | Q 0.872 | R 0.462 | S 0.81 | T 1.13 | V 2.81 | W 1.78 | Y 1.43
K34: A 1.33 | C 1.95 | D 1.01 | E 1.02 | F 2 | G 1.03 | H 1.82 | I 2.28 | L 1.77 | M 1.66 | N 1.41 | P 0.802 | Q 1.42 | R 2.21 | S 1.68 | T 1.9 | V 2.26 | W 1.82 | Y 1.98
V35: A 1.53 | C 2.78 | D 1.59 | E 1.96 | F 2.38 | G 1.2 | H 1.57 | I 2.27 | K 1.3 | L 1.93 | M 2 | N 1.73 | P 0.972 | Q 1.62 | R 1.25 | S 1.61 | T 1.72 | W 3.09 | Y 2.48
E36: A 1.74 | C 2.26 | D 1.77 | F 1.88 | G 1.61 | H 1.83 | I 2.43 | K 1.4 | L 2.02 | M 1.84 | N 1.59 | P 0.792 | Q 1.89 | R 1.45 | S 1.73 | T 1.78 | V 2.54 | W 1.52 | Y 1.86
N37: A 1.4 | C 2.07 | D 1.63 | E 1.52 | F 1.41 | G 1.97 | H 1.52 | I 1.14 | K 1.45 | L 1.52 | M 1.3 | P 1.26 | Q 1.46 | R 1.14 | S 1.38 | T 1.18 | V 1.14 | W 0.999 | Y 1.19
G38: A 1.13 | C 1.98 | D 1.3 | E 1.13 | F 0.552 | H 1.25 | I 0.967 | K 0.662 | L 1.02 | M 1.1 | N 1.68 | P 0.815 | Q 1.21 | R 0.518 | S 1.19 | T 1.17 | V 0.725 | W 0.438 | Y 0.501
T39: A 1.6 | C 1.89 | D 1.17 | E 1.2 | F 1.88 | G 1.4 | H 1.93 | I 2.81 | K 2.43 | L 2.13 | M 2.24 | N 1.84 | P 0.866 | Q 1.91 | R 2.17 | S 1.69 | V 2.77 | W 1.66 | Y 1.95
L40: A 0.864 | C 1.47 | D 0.757 | E 0.788 | F 1.94 | G 0.861 | H 0.973 | I 2.6 | K 0.532 | M 1.67 | N 0.85 | P 0.807 | Q 0.884 | R 0.347 | S 0.813 | T 0.992 | V 1.35 | W 2.28 | Y 2.27
K41: A 1.09 | C 1.64 | D 0.86 | E 0.957 | F 2 | G 1.01 | H 1.61 | I 2.1 | L 1.62 | M 1.63 | N 0.986 | P 0.852 | Q 1.24 | R 2.17 | S 1.45 | T 1.73 | V 2.02 | W 1.65 | Y 1.92
V42: A 0.786 | C 1.4 | D 0.806 | E 0.783 | F 1.02 | G 0.841 | H 0.832 | I 2 | K 0.582 | L 1.74 | M 0.942 | N 0.799 | P 0.879 | Q 0.74 | R 0.352 | S 0.916 | T 0.943 | W 1.06 | Y 0.816
E43: A 1.94 | C 2.81
